From patent US20230047413A1 (Janssen / Centocor, published 2023) come the findings set out here.

Several values for one entry are separate records, joined by “and”; a condition that tells them apart may be missing. Equal entries are not always repeated.

For one assay, the target named is Peptide-7 (human, phosphothreonine 212, phosphoserine 214 (tau 2N4R numbering); SCBiot and dPEG4 at the N-terminus; amide at the C-terminus). The experiment in a line: SPR ProteOn, peptide captured, Fab as analyte; range of n=2; Peptide-7 (pT212/pS214); upper end of n=2 range. The procedure:
(§1) The binding affinity of PT3 Fab towards each of the fourteen tau phosphopeptides shown in Table 6 was assessed by surface plasmon resonance (SPR) using a Bio-Rad ProteOn XPR36. Peptides were synthesized by standard chemical methods (New England Peptide) with short-chain biotin and a PEG4 moiety at the N-terminus. Biotinylated peptide was captured on a neutravidin-coated NLC biosensor chip and PT3 Fab was flowed over the surface to measure kinetic parameters.
(§2) All experiments were performed at 25° C. using phosphate buffered saline, pH 7.4, 0.005% Tween 20 (PBST) as both running buffer and sample dilution buffer. Prior to running samples, the NLC chip was conditioned by running PBST over the chip surface for 1 h. Approximately 5-10 RU of peptide was captured on the chip surface by diluting peptide to 10 ng/mL in PBST and injecting over the flow channels at 30 μL/min for 100 s. Serial dilutions of PT3 Fab (1.1-90 nM) were analyzed and, with the exception of Peptide-8, each concentration was measured in duplicate. After capture of peptides, the antibody titration was injected at 60 μL/min for 3 minutes (association phase), followed by 300 s of buffer only (dissociation phase).
(§3) The data were double referenced by subtraction of the interspot response and the curves generated by the buffer-only injection. […] The data were analyzed using a simple Langmuir 1:1 binding model.

The target of assay [1] is T1, Peptide-2 (human, phosphothreonine 212, phosphothreonine 217 (tau 2N4R numbering); short chain biotin (SCBiot) and dPEG4 at the N-terminus; amide at the C-terminus).
T1 construct: also called pT212/pT217-tau peptide (Peptide-2)
T1 sequence (peptide, as listed by the source): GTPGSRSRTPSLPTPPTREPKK
The experiment in a line: SPR ProteOn, peptide captured, Fab as analyte; range of n=2; Peptide-2 (pT212/pT217); Table 12 run; upper end of n=2 range. How it is done:
(§4) A subset of HFA-PT3 monoclonal antibody variants, selected based on biophysical characterization and ELISA binding to PHF, were analyzed by Surface Plasmon Resonance (SPR) with a ProteOn XPR36 for binding to the following phosphopeptides: pT212/pT217-tau peptide (Peptide-2, SEQ ID NO: 48) and pT212-tau peptide (Peptide-8, SEQ ID NO: 54). All experiments were performed at 25° C. using PBST, pH 7.4, (Bio-Rad Cat#176-2720) as both running buffer and sample dilution buffer.
(§5) Fab/peptide binding. Biotinylated peptide was captured on a neutravidin-coated NLC biosensor chip pre-conditioned with PBST, and Fab was flowed over the surface to measure kinetic parameters. Approximately 5-10 RU of peptide was captured on the chip surface by diluting peptide to 10 ng/mL in PBST and injecting over the flow channels at 30 μL/min for 100 s. Serial dilutions of PT3 Fab (1.1 nM to 90 nM) were injected at 60 μL/min for 3 minutes (association phase), followed by 300 s of buffer only (dissociation phase).
(§6) Data were double referenced by subtraction of the interspot response, and the curves generated by the buffer only injection. The chip surface was regenerated with 0.85% phosphoric acid, followed by PBST injection before the next antibody titration injection. Data processing and analysis were performed using instrument software. The data were fit using a simple Langmuir 1:1 binding model.

The target in assay [2] is T1, Peptide-2. Description: SPR ProteOn, peptide captured, Fab as analyte; Peptide-2 (pT212/pT217); separate run of Table 12 (HFA Fab comparison), n=2. How it is done:
as §4, §5, §6

Another assay addresses Peptide-4 (human, phosphoserine 210, phosphothreonine 217 (tau 2N4R numbering); SCBiot and dPEG4 at the N-terminus; amide at the C-terminus). Description: SPR ProteOn, peptide captured, Fab as analyte; range of n=2. The procedure:
as §1, §2
(§7) The data were double referenced by subtraction of the interspot response and the curves generated by the buffer-only injection. The chip surface was regenerated using a single injection of 0.85% phosphoric acid at 30 μL/min for 100 s contact time, followed by four injections of running buffer before the next antibody titration injection. The data processing and kinetic analysis were done using the instrument software. The data were analyzed using a simple Langmuir 1:1 binding model.

For assay [3], the target named is T2, Peptide-5 (human, phosphoserine 210, phosphoserine 214, phosphothreonine 217 (tau 2N4R numbering); SCBiot and dPEG4 at the N-terminus; amide at the C-terminus). The description is as above. How it is done: as §1, §2, §7
Assay [4] concerns the target T3, Peptide-1 (human, phosphothreonine 212, phosphoserine 214, phosphothreonine 217 (tau 2N4R numbering); short chain biotin (SCBiot) and dPEG4 at the N-terminus; amide at the C-terminus).
T3 construct: also called tau peptide phosphorylated at T212/S214/T217
The assay is described as above. The procedure:
as §1, §2, §7

Assay [5] addresses T1, Peptide-2. The assay is described as above. How it is done:
as §1, §2, §7

Assay [6] has as its target T2, Peptide-5. Description: SPR ProteOn, peptide captured, Fab as analyte; Peptide-5, phosphorylated at 210/214/217. How it is done: as §1, §2, §3
Assay [7] deals with T2, Peptide-5. Description: SPR ProteOn, peptide captured, Fab as analyte; range of n=2; Peptide-5 (pS210/pS214/pT217); upper end of n=2 range. The procedure: as §1, §2, §3
The target in assay [8] is T1, Peptide-2. Description: SPR ProteOn, peptide captured, Fab as analyte; range of n=2; Peptide-2 (pT212/pT217); Table 6 run; lower end of n=2 range.
The target in assay [9] is T3, Peptide-1. Description: SPR ProteOn, peptide captured, Fab as analyte; Peptide-1, phosphorylated at 212/214/217. The procedure:
as §1, §2, §3

B1: PT3 Fab (B187) (Fab, V domains shown)
VH: EVKLVESGGDLVKPGGSLKLSCAASGFTFSSYAMSWVRQNPEKRLEWVASISKGGNTYYPNSVKGRFTISRDNARNILYLQMSSLRSEDTALYYCARGWGDYGWFAYWGQVTLVTVSA
VL: DIKMTQSPSSMYASLGERVTITCKASQDINRYLNWFQQKPGKSPKTLIYRANRLLDGVPSRFSGSGSGQDYSLTISSLDYEDMGIYYCLQYDEFPLTFGDGTKLELK
notes: Chimeric Fab: mouse variable regions, human IgG1/kappa constant region, 6xHis tag at the C-terminus of the heavy chain; also called mouse parental Fab of PT3
Turning to B1, the dissociation constant (Kd) (in general, the free concentration of one partner at which half of the binding sites on the other are occupied at equilibrium, for simple one-to-one binding) in the assay with Peptide-7 is 11.3 to 15.7 nM; with Peptide-2 [1] it was 0.0738 to 0.101 nM; with Peptide-2 [2], 0.0874 nM; with Peptide-4 it was 6.48 to 6.71 nM; with Peptide-5 [3], 6.6 to 10.8 nM; with Peptide-2 [5], 0.09 to 0.45 nM. Also, the equilibrium dissociation constant (Kd) with Peptide-5 [6] was 8.7 nM; with Peptide-5 [7], 6.6 to 10.8 nM; with Peptide-2 [8], 0.09 to 0.45 nM; in the assay with Peptide-1 [9], 0.26 nM. In addition, the koff (commonly the first-order rate constant of dissociation) with Peptide-1 [4] was 0.000236 s⁻¹ and 0.000324 s⁻¹; with Peptide-2 [5] it was 9.1e-05 s⁻¹. Further, in the assay with Peptide-1 [4], the kon (as a rule, the second-order rate constant of association) is 870000 M⁻¹ s⁻¹ and 1.67e+06 M⁻¹ s⁻¹.
